Reference: CN111410689A (UNIV CHONGQING TECHNOLOGY, dated 2020)

Target: T1, HPV18E7蛋白 (in HeLa cells and HPV18-positive cervical adenocarcinoma tissue) (HPV18, UniProt P06788 1-105)
T1 construct: whole, on cells; Native intracellular protein in cells, tissue sections or total lysate; also called HeLa细胞总蛋白中的HPV18E7蛋白
T1 sequence: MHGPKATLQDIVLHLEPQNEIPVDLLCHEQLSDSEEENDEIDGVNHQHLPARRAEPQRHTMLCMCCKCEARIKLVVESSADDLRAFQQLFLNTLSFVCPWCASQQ
Experiment: immunocytochemistry on HeLa cells (HPV18 positive), DAB

B1: 抗HPV16E7蛋白单抗69E2 (antibody, mouse IgG2a, kappa, V domains shown)
VH: QVQLQQSGPEVVRPGVSVKISCKGSGYTFTDYAMHWVKQSHAKSLEWIGVISTYNGNTNYNQKFKGKATVTVDKSSSTAYMELARLTSEDSAIYYCARRGFGNSWFAYWGQGTLVTVSA
VL: ENVLTQSPAIMSASPGGKVTMTCSASSGVSYMHWYQQKSSTSPKLWIYDTSNLASGVPGRFSGSGSGNSYSLTISSMEAEDVATYYCFQGSGYPFTFGSGTKLEIRR
notes: Mouse IgG2a from hybridoma, purified from ascites; also called HPV16E7-69E2; CCTCC NO:C2019181
- binding result: no binding (tested: 7.8125ng/孔到1μg/孔)
